How the values were obtained:
[1] = substrate: N[C@@H](CCC(=O)O)C(=O)O; assay: glutamate decarboxylation assay, Michaelis-Menten fit; assay type: biochemical, Levilactobacillus brevis; conditions: pH 4.8, 45 °C, sulfate buffer (0.8 M sodium sulfate, 50 mM sodium acetate), PLP, glutamate 0.9-36 mM
Excerpt: glutamate decarboxylation assay, Michaelis-Menten fit on Lb. brevis GadA (WT)

[2] = substrate: N[C@@H](CCC(=O)O)C(=O)O; assay: as above; assay type: biochemical, Lactiplantibacillus plantarum; conditions: pH 4.8, 60 °C, McIlvaine (citrate-phosphate) buffer, PLP, glutamate 0.9-36 mM
Excerpt: glutamate decarboxylation assay, Michaelis-Menten fit on Lb. plantarum GadB

Row | Protein | Km [1] | Vmax [1] | kcat [1] | kcat/Km [1] | Km [2] | Vmax [2] | kcat [2] | kcat/Km [2]
1 | Lb. brevis GadA (WT) (Levilactobacillus brevis ATCC 367) (protein, recombinant in E. coli from pRSETA-SUMO with N-terminal His-SUMO tag (tag removal told only in supplement); native N-terminus MNKNDQET (from primer); tetramer per cited work) MNKNDQETQQMINNVDLEKTFLGSVEAGQSLPTNTLPDDPMAPDVAAQLVEHYRLNEAKANQNLATFCTTQMEPQADELMKNALNTNAIDKSEYPKTAAMENYCVSMIAHLWGIPDNEKIYDDFIGTSTVGSSEGCMLGGLALLHSWKHRAKAAGFDIEDLHSHKPNLVIMSGYQVVWEKFCTYWNVEMRQVPINGDQVSLDMDHVMDYVDENTIGIIGIEGITYTGSVDDIQTLDNLVTEYNKTATMPVRIHVDAAFGGLFAPFVDGFNPWDFRLKNVVSINVSGHKYGMVYPGLGWIVWRHNTADILPAEMRFQVPYLGKTVDSIAINFSHSGAHISAQYYNFIRFGLSGYKTIMQNVRKVSLKLTAALKTYGIFDILVDGSQLPINCWKLADDAPVGWTLYDLESELAKYGWQVPAYPLPKNRDDVTISRIVVRPSMTMTIADDFLDDLKLAIDGLNHTFGVTTTVDQDNKTTVRS | 26.95 ± 2.437 mM | 9.16 µmol/min/mg | 8.17 ± 0.405 s⁻¹ | 303 M⁻¹ s⁻¹ | – | – | – | –
2 | Lb. plantarum GadB (Lactiplantibacillus plantarum WCFS1) (protein, recombinant in E. coli from pET-28a(+), +GSHM at N-terminus (left after tag cleavage, details in supplement); start MAMLYGKH (from primer); about 54 kDa from kcat/Vmax; dimer per cited work) MAMLYGKHNHEAEEYLEPVFGAPSEQHDLPKYRLPKHSLSPREADRLVRDELLDEGNSRLNLATFCQTYMEPEAVELMKDTLAKNAIDKSEYPRTAEIENRCVNIIANLWHAPDDEHFTGTSTIGSSEACMLGGLAMKFAWRKRAQAAGLDLNAHRPNLVISAGYQVCWEKFCVYWDVDMHVVPMDEQHMALDVNHVLDYVDEYTIGIVGIMGITYTGQYDDLAALDKVVTHYNHQHPKLPVYIHVDAASGGFYTPFIEPQLIWDFRLANVVSINASGHKYGLVYPGVGWVVWRDRQFLPPELVFKVSYLGGELPTMAINFSHSAAQLIGQYYNFIRFGMDGYREIQTKTHDVARYLAAALDKVGEFKMINNGHQLPLICYQLASREDREWTLYDLSDRLLMNGWQVPTYPLPANLEQQVIQRIVVRADFGMNMAHDFMDDLTKAVHDLNHAHIVYHHDAAPKKYGFTH | – | – | – | – | 20.02 ± 2.557 mM | 73.3 µmol/min/mg | 65.9 ± 4.2 s⁻¹ | 3290 M⁻¹ s⁻¹
